Test results reported in the RNAGym collection of RNA variant scans (doi:10.7554/elife.80360).

B1: Hairpin Ribozyme (parent)
chain: GUCCUCUUUCACGUGCGCGUGAAAGAGAGAAGUGAACCAGAGAAACACACGUUGUGGUAUAUUACCUGGUA

Variants of: B1
Test: self-cleavage, relative activity (ratio to wild type); higher = more cleavage; co-transcriptional

Variant	self-cleavage
GUCCUCUUACACGUGCGCGUGAAAGAGAGAAGUGAACCAGAGAGACACACGUUGUGGUAUAUUACCUGGUA	0.0648
GUCCUCUUACACGUGCGCGUGAAAGAGAGAAGUGAACCAGAGAAACAAACGUUGUGGUAUAUUACCUGGUA	0.144
GUCCUCUUACACGUGCGCGUGAAAGAGAGAAGUGAACCAGAGAAACACACGUUGUGGGAUAUUACCUGGUA	0.494
GUCCUCUUACACGUGCGCGUGAAAGAGAGAAGUGAACCAGAGAAACACACGUUGUGGAAUAUUACCUGGUA	0.344
GUCCUCUUACACGUGCGCGUCAAAGAGAGAAGUGAACCAGAGAAACACACGUUGUGGUAUAUUACCUGGUA	0.465
GUCCUCUUACACGUGCGCGUGAAAGAGAGAAGUGAAACAGAGAAACACACGUUGUGGUAUAUUACCUGGUA	0.193
GUCCUCUUACACGUGCGCGUGAAAGAGAGAAGUGAAUCAGAGAAACACACGUUGUGGUAUAUUACCUGGUA	0.317
GUCCUCUUACACGUGCGCGUGAAAGAGAGAAGUGAAGCAGAGAAACACACGUUGUGGUAUAUUACCUGGUA	0.189
GUCCUCUUACACGUGCGCGUGAAAGAGAGAAGUGAACCAGAGAAGCACACGUUGUGGUAUAUUACCUGGUA	0.172
GUCCUCUUCCACGUGCGCGUGAAUGAGAGAAGUGAACCAGAGAAACACACGUUGUGGUAUAUUACCUGGUA	0.677
GUCCUCUUCCACGUGCGCGUGAAAGAGAGAAGUGAACCAGAGAAACACACGUUGUGGUAUAUUUCCUGGUA	0.0987
GUCCUCUUCCACGUGCGCGUGAAAGAGAGAAGUGAACCAGAGAAACACACGUUGUGGUAUAUUCCCUGGUA	0.201
GUCCUCUUCCACGUGCGCGUGAAAGAGAGAAGUGAACCAGAGAAACACACGUUGUGGUAUAUUGCCUGGUA	0.381
GUCCUCUUACACGUGCGCGUGAAAGAGAGAAGUGAACUAGAGAAACACACGUUGUGGUAUAUUACCUGGUA	0.388
GUCCUCUUCCACGUGCGCGUGAAAGAGAGAAGUGAACCAGAGAAACACAGGUUGUGGUAUAUUACCUGGUA	0.258
GUCCUCUUCCACGUGCGCGUGAAAGAGAGAAGUGAACCAGAGAAACACAUGUUGUGGUAUAUUACCUGGUA	0.314
GUCCUCUUCCACGUGCGCGUGCAAGAGAGAAGUGAACCAGAGAAACACACGUUGUGGUAUAUUACCUGGUA	0.799
GUCCUCUUCCACGUGCGCGUGGAAGAGAGAAGUGAACCAGAGAAACACACGUUGUGGUAUAUUACCUGGUA	1.04
GUCCUCUUACACGUGCGCGUGAAAGAGAGAAGUGAACCAGAGAAACACACGUUGUGGUAUAGUACCUGGUA	0.122
GUCCUCUUCCACGUGCGCGUGAAAGAGAGAAGUGAACCAGGGAAACACACGUUGUGGUAUAUUACCUGGUA	0.706
GUCCUCUUACACGUGCGUGUGAAAGAGAGAAGUGAACCAGAGAAACACACGUUGUGGUAUAUUACCUGGUA	0.775
GUCCUCUUACACGUGCGCGUGAAAGAGAGAAGUGAACCUGAGAAACACACGUUGUGGUAUAUUACCUGGUA	0.335
GUCCUCUUACACGUGCGCGUGAAAGAGAGAAGUGAACCAGAGAAACACACGGUGUGGUAUAUUACCUGGUA	0.472
GUCCUCUUACACGGGCGCGUGAAAGAGAGAAGUGAACCAGAGAAACACACGUUGUGGUAUAUUACCUGGUA	0.74
GUCCUCUUACACGCGCGCGUGAAAGAGAGAAGUGAACCAGAGAAACACACGUUGUGGUAUAUUACCUGGUA	0.62
GUCCUCUUACACGUGCGCGUGAAAGAGAGAAGUGAACCAGAGCAACACACGUUGUGGUAUAUUACCUGGUA	0.142

Variant	self-cleavage
GUCCUCUUACACGUGCGCGUGAAAGAGAGAAGUGAACCAGAGGAACACACGUUGUGGUAUAUUACCUGGUA	0.179
GUCCUCUUCCAUGUGCGCGUGAAAGAGAGAAGUGAACCAGAGAAACACACGUUGUGGUAUAUUACCUGGUA	0.665
GUCCUCUUACACGUGCGCGUGAAAGAGAGAAGUGAACCAGAGAAACACACGUUGUGGUGUAUUACCUGGUA	0.154
GUCCUCUUACACGUGCGCGUGAAAGAGAGAAGUGAACCAGAGAAACACACGUUGUGGUCUAUUACCUGGUA	0.0956
GUCCUCUUCCACGUGCGCGUGAAAGAGAGAAGUGAACCAGAGAAACGCACGUUGUGGUAUAUUACCUGGUA	0.123
GUCCUCUUACACGUGCGCGUGAAAGAGAGAAGUGAACCAGAGAAACACACGUUGGGGUAUAUUACCUGGUA	0.279
GUCCUCUUCCACGUGCGCGUGAAAGAGAGAAGUGAACCAGAGAAACACACGUUGUGGUAUUUUACCUGGUA	0.0555
GUCCUCUUACACGUGCGCGUGAAAGAGAGAAGUGAACCAGAGAAACACACGUUGUGGUAUAUUACCUGGUG	0.707
GUCCUCUUACACGUGCGCGUGAAAGAGAGAAGUGUACCAGAGAAACACACGUUGUGGUAUAUUACCUGGUA	0.578
GUCCUCUUCCUCGUGCGCGUGAAAGAGAGAAGUGAACCAGAGAAACACACGUUGUGGUAUAUUACCUGGUA	0.411
GUCCUCUUCCACGUGCGCGUGAAAGAGAGCAGUGAACCAGAGAAACACACGUUGUGGUAUAUUACCUGGUA	0.0706
GUCCUCUUACACGUGCGCGUGAAAGAGAGAAGUGAACCAGAGAAACGCACGUUGUGGUAUAUUACCUGGUA	0.0847
GUCCUCUUACACGUGCGCGUGAAAGAGAGAAGUGAACCAGAGAAACUCACGUUGUGGUAUAUUACCUGGUA	0.135
GUCCUCUUCCACGUGCGCGUGAAAGUGAGAAGUGAACCAGAGAAACACACGUUGUGGUAUAUUACCUGGUA	0.546
GUCCUCUUCCACGUGCGCGUGAAAGAGAGAAGUGAAGCAGAGAAACACACGUUGUGGUAUAUUACCUGGUA	0.595
GUCCUCUUCCACGUGCGCGUGAAAGAGAGAAGUGAAUCAGAGAAACACACGUUGUGGUAUAUUACCUGGUA	0.529
GUCCUCUUACACGUGCGCGUGAAAGAGAGAAGUGAACCAGAGAAACACACGUUGUCGUAUAUUACCUGGUA	0.0939
GUCCUCUUACACGUGCGCGUGAAAGAGAGAAGUGAACCAGAGAAACACACGUUGUGGUAUAUUACCUAGUA	0.223
GUCCUCUUCAACGUGCGCGUGAAAGAGAGAAGUGAACCAGAGAAACACACGUUGUGGUAUAUUACCUGGUA	0.696
GUCCUCUUCUACGUGCGCGUGAAAGAGAGAAGUGAACCAGAGAAACACACGUUGUGGUAUAUUACCUGGUA	0.527
GUCCUCUUACACGUGCGCGUGAAAGAGAGAAGUGAACCAGAGAAACACUCGUUGUGGUAUAUUACCUGGUA	0.179
GUCCUCUUCCACGUGCGCGUGAAAGAGAGAAGUGAACCAGAGAUACACACGUUGUGGUAUAUUACCUGGUA	0.247
GUCCUCUUACACGUGCGCGUGAAAGAGAGAAGUGAACCAGGGAAACACACGUUGUGGUAUAUUACCUGGUA	0.675
GUCCUCUUACACGUGCGCGUGAAAGAGAGAAGUGAACCAGAUAAACACACGUUGUGGUAUAUUACCUGGUA	0.253
GUCCUCUUACACGUGCGCAUGAAAGAGAGAAGUGAACCAGAGAAACACACGUUGUGGUAUAUUACCUGGUA	0.588
GUCCUCUUACACGUGCGCGUGAAAGAGAGAAGUGAACCAGAGAAACACACGUUGUGGUAUAUUACCUGGGA	0.532

Variant	self-cleavage
GUCCUCUUACACGUGCGCGUGAAAGAGAGAAGUGAACCAGAGAAACACACGUUGUGGUAGAUUACCUGGUA	0.484
GUCCUCUUCCACGUGCGCGUGAAAGAGAGAAGUGAACCAGAGAAAAACACGUUGUGGUAUAUUACCUGGUA	0.122
GUCCUCUUACACGUGCGCGUGAAAGAGAGAAGUGAACCAGAGAAAUACACGUUGUGGUAUAUUACCUGGUA	0.134
GUCCUCUUACACGUGCGCGUGAAAGAGAGAAGUGAACCAGAGAAAGACACGUUGUGGUAUAUUACCUGGUA	0.135
GUCCUCUUCCACGUGCGCGUGAAAGAGAGAAGUGAGCCAGAGAAACACACGUUGUGGUAUAUUACCUGGUA	0.882
GUCCUCUUCCACGUGCGCGUGAAAGAGAGAAGUGAACCAGAGAAACACACGUUGUGGUAUAUUAUCUGGUA	0.258
GUCCUCUUCCACGUGCUCGUGAAAGAGAGAAGUGAACCAGAGAAACACACGUUGUGGUAUAUUACCUGGUA	0.709
GUCCUCUUCCACUUGCGCGUGAAAGAGAGAAGUGAACCAGAGAAACACACGUUGUGGUAUAUUACCUGGUA	0.469
GUCCUCUUACACGUGCGCGUGAAAGAGAGAAGUGAACCAGAGAAACACAAGUUGUGGUAUAUUACCUGGUA	0.264
GUCCUCUUACACGUGCGCGUGAAAGAGAGAAGUGAACCAGAGAAACACAGGUUGUGGUAUAUUACCUGGUA	0.214
GUCCUCUUCCACGUGCGCGUGAAAGAGAGAAGUGAACCAGAGAAACACACGUUGUGGUAUAUUACCUGGUU	0.68
GUCCUCUUACACGUGCGCGUGAAAGAGAGAAGUGAACCAGAGAAACACACGUUGUGGUAUAUUACUUGGUA	0.266
GUCCUCUUACACGUGCGCGUGAAAGAGAGAAGUGAACCAGAGAAACACACGUUGUGGUAUAUUAGCUGGUA	0.203
GUCCUCUUACACGUGCGCGUGAAAGAGAGAAGUGAACCAGAGAAACACACGUUGUGGUAUAUUAUCUGGUA	0.335
GUCCUCUUACACGUGCGCGUGAAAAAGAGAAGUGAACCAGAGAAACACACGUUGUGGUAUAUUACCUGGUA	0.191
GUCCUCUUACACGUGCGCGUGAAACAGAGAAGUGAACCAGAGAAACACACGUUGUGGUAUAUUACCUGGUA	0.232
GUCCUCUUACACGUGCGCGUGAAAGAGAGAAAUGAACCAGAGAAACACACGUUGUGGUAUAUUACCUGGUA	0.179
GUCCUCUUACACGUGCGCGUGAAAGAGAGAAGUGAACCAGAGAAACACACUUUGUGGUAUAUUACCUGGUA	0.675
GUCCUCUUCCACGUGCGCGUGAAAGAGAGAAGUGAACCAGAGAAACACACGUUGUGGUUUAUUACCUGGUA	0.146
GUCCUCUUCCACGUGCGCGUGAAAGAGAGAAGUGAACCAGAGAAACACACGUUGUGGUCUAUUACCUGGUA	0.142
GUCCUCUUACACGUGCGCGUGAAAGAGAGAAGUGAACCAGAGAAACACACGUUCUGGUAUAUUACCUGGUA	0.3
GUCCUCUUACACCUGCGCGUGAAAGAGAGAAGUGAACCAGAGAAACACACGUUGUGGUAUAUUACCUGGUA	0.399
GUCCUCUUACACGUGCGCGUGAAAGAGAGAAGUGAACCAGAGAAACACACGUGGUGGUAUAUUACCUGGUA	0.703
GUCCUCUUACACGUGCGCGUGAAAGAGAGAAGUGAACCAGAGAAACACACGUCGUGGUAUAUUACCUGGUA	0.732
